One assay concerns the target mCD16-2 (mouse). As to the kind of experiment: BLI; Fortebio Octet, 30°C; FcγRs loaded on NTA sensors at 5 μg/mL (2.5 nm); antibodies in solution, six 2-fold dilutions; 1× PBS, 0.1% BSA, 0.02% Tween 20; steady-state equilibrium analysis.
The next assay addresses mCD32b (mouse) (UniProt P08101). The description is as above.
Assay [1] addresses hCD16a (FcγR IIIa) (human) (UniProt P08637). Nature of the assay: BLI.
Assay [2] concerns the target hCD16b (FcγR IIIb) (human) (UniProt O75015). Nature of the assay: BLI.
The target of assay [3] is hCD32b (FcγR IIb) (human) (UniProt P31994). As to the kind of experiment: BLI.
UniProt P31994, sequence (P31994 43-310): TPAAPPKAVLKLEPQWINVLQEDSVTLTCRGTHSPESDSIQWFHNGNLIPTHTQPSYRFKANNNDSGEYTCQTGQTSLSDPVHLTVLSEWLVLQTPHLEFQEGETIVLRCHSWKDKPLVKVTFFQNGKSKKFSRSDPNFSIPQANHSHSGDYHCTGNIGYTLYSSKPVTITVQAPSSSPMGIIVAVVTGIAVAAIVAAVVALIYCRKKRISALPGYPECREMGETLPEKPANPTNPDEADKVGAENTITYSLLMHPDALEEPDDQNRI

UniProt P08101, sequence (P08101 30-330): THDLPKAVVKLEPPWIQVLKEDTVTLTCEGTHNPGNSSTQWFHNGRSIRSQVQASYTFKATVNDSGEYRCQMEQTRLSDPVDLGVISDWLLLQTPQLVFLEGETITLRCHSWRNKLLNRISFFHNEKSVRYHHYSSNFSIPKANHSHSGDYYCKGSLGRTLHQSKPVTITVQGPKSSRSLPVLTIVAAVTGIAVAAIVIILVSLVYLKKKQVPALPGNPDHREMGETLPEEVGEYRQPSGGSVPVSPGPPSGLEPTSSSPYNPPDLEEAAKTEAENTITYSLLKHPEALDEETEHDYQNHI
UniProt P08637, sequence (P08637 17-208): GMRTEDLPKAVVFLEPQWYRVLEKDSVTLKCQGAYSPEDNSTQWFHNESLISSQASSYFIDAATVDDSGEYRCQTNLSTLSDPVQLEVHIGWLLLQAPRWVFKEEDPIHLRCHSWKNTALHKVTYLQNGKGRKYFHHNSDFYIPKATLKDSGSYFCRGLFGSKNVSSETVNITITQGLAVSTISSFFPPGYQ
UniProt O75015, sequence (O75015 17-200): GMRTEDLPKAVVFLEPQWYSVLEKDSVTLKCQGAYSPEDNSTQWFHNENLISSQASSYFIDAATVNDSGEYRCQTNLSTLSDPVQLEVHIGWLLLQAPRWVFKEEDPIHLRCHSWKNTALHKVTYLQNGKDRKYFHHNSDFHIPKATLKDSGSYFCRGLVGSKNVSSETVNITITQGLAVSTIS

On to Wild-type huE6F6 (huE6F6-wt) (antibody), for which the Kd came to 1100 nM in the assay with mCD16-2 (mouse) and 2800 nM with mCD32b (mouse).

Regarding “Wild-type huE6F6 (huE6F6-wt) (from UniProt P01857)”, the Kd in assay [1] came out at 805 nM; in assay [2], 2580 nM; in assay [3], 1100 nM.

The values are drawn from PMC10777313.
